# Laboratory results taken from PMC5173319, “Crenactin forms actin-like double helical filaments regulated by arcadin-2” (eLife, 2016).
# B1: Pyrobaculum calidifontis crenactin (natural protein, UniProt A3MWN5 1-432, looked up)
# chain: MGVISDAYRLKYTFGVDFGTSYVKYGPITLNEPKMVQTRGLFLRDLPESVKMRIPPDVLARGLVVGDEEVRKYLSSVRDVQRNLKYPLKDGVARRDDEEAWRVLKELARYTLAQFPVSDPEFAGWLVAVALSALAPDYMYKAIFDIYDELASEFKIYAVTILPQPLAVAIAENAVNCVIVEGGHGNIQVAPISFALIREGLVALNRGGAEANAITREILKDIGYSDIAREEYAVEVVKRAVGLVPRRLKEAIRAAKSDPDRFVTKVRLSPVVEVEIPREYAWTRFLIGEIVFDPNHEEIKSYIEQSRLRIENAVIGDVTLYGEMDVASAIITSLRNVSVEIQERVASQIILSGGAFSWRVPPGMEDVAADSVTRVKIALEEKSPALASKVEVRLVSEPQYSVWRGAVIYGYALPLSLEWSDTTREGWRFPRR
# notes: codon-optimised gene in pOPIN-S; Forms double-stranded helical filaments with ATP and MgCl2; The construct used for co-expression with arcadin-2 is not described; also called PCC; source: E. coli C41(DE3), purified (Ni-NTA, elution by SUMO tag cleavage with SENP1, Sephacryl S300); also co-expressed with arcadin-2 and purified as a complex; not shown: His6, N-terminal, cleaved; SUMO, N-terminal, …
# B2: Pyrobaculum calidifontis arcadin-2 (natural protein, UniProt A3MWN6 1-203, looked up)
# chain: MDFPKVLLIRHFTEVLGMKYAGEGGEVLWFEEGLNRVAVGIYFTDLYEEAELYKRVGALMGLGASKVFLAVLPDALAFVDPRYFKANGVGLVVVDPAKGVDGVEVKIFARARPAAVEPLKIDAVKAALHEYLASELKRVEESLFEKVRRYVDQRVEEVKRALQAVEEAKRAAPPVQRAAAESAQEPRGGIGENEWVKILRSKR
# notes: arcadin-2, Pyrobaculum calidifontis, NCBI WP_011850311.1; untagged, native protein from pHis17; The construct used for co-expression with crenactin is not described; also called full-length arcadin-2; source: E. coli C41(DE3), purified (heat step 60°C, ammonium sulphate precipitation, Sephacryl S300); also co-expressed with crenactin and purified as a complex
# B3: arcadin-2 C-terminal peptide (residues 187-203) (peptide, UniProt A3MWN6 187-203, looked up)
# peptide: RGGIGENEWVKILRSKR
# notes: arcadin-2, Pyrobaculum calidifontis, NCBI WP_011850311.1, residues R187 to R203 (the last 17 amino acids); also called arcadin-2 peptide; C-peptide; source: synthetic peptide (Generon, U.K)
# Assays:
# [1] = target: the molecule itself; assay: cryo-EM structure; crenactin 0.5-1 mg/ml in 50 mM NH4HCO3, 20 mM KCl, polymerised with 2 mM ATP and 4 mM MgCl2 for 30 min on ice; helical reconstruction in RELION 2.0
# [2] = target: B1; assay: SPR; crenactin immobilised by amide coupling on CM5 chip (~700 RU), Biacore T200, PBS-0.005% Tween 20, 20°C; arcadin-2 or arcadin-2ΔC in 1:2 dilution series from 2 µM; kinetic fits, Kd = koff/kon; conditions: both partners purified
# [3] = target: B1; assay: crystal structure; crenactin at 7 mg/ml mixed with arcadin-2 peptide at molar ratio 1 to 3; 0.31 M sodium acetate, 12.8% PEG 4000, 0.1 M sodium acetate pH 4.5; 1.6 Å; conditions: both partners purified
binder,measurement,setting,value
B1,binding result,[1],binds
B2,Kd,[2],31 nM
B3,binding result,[3],binds
